Consider one molecule from patent publication US7700353B2, “Compositions and methods for inducing apoptosis in tumor cells” (E-P Therapeutics, Inc., priority 1998, dated 2010).

Common to all, as to type: cell-based, human
Assay [1] deals with HT-29 or MDA-MB-231 cells. The assay can be described thus: Colony formation assay in semi-solid medium (Ea-4 peptide). The settings on record: increasing concentrations (0.4 to 1.6 μM), 1.25% FBS, vs control protein. On the procedure: Colony formation assays were conducted following the method described by Yang (1975). About 2×10^4 of HT-29 (colon cancer cells) or MDA-MB-231 cells (aggressive breast cancer cells) at log phase were plated in their respective basal medium containing 1.25% FBS and 0.5% purified agar (Difco laboratories), and supplemented with various concentrations (0.4 to 1.6 µM) of the recombinant rainbow trout Ea-4 peptide, or the same amount of the control protein, in 6-well culture chambers. After the medium is solidified, each well is overlaid with 1 mL of the basal medium (containing 1.25% FBS) supplemented with same concentration of the trout Ea-4 peptide. The plates were incubated at 37° C. in a humidified incubator with 5% CO2 and examined daily under an inverted microscope for 2-3 weeks. Colonies were observed under an Olympic inverted microscope equipped with phase contrast objective lenses (final magnification: 40×). Colonies with sizes ≥50 µm were scored. The viability of cells at the conclusion of the experiment was confirmed by dye extrusion assay with tryptan blue. The assay was conducted two times.

A further assay has as its system HT1080 cells. Nature of the assay: Matrigel invasion assay. The conditions noted are these: for # invaded cells/view (MIC): Matrigel insert; for # invaded cells/view (MIC) / # invaded cells/view (CIC): 24 hours; for # invaded cells/view (CIC): control insert. On the procedure: Invasion assays were conducted in BIOCOAT MATRIGEL invasion chambers following the procedure provided by Becton Dickinson Labware (Bedford, Mass.; 40480 and 40481 guidelines). According to these procedures, 1×10^6 of HT1080 cells in DMEM supplemented with 1.25% FBS, with Ea-4 peptide (0.17 µM and 0.34 µM), or the same amount of the control protein, were plated in each insert of the Matrigel or control invasion chambers. The inserts were placed in the respective chambers containing DMEM medium supplemented with 10% FBS, and the chambers were incubated at 37° C. under a humidified atmosphere of 5% CO2 for 24 hours. After removal of the non-invaded cells with cotton swabs, the invaded cells on the other side of the membranes were stained with the Diff-Quick T stain (Becton Dickinson Labware, Bedford, Mass.) and observed under an Olympic inverted microscope (magnification, 200×). Control proteins were prepared from E. coli cells carrying the expression plasmid without the Ea-4-peptide gene by the same purification method (Tian et al., 1999). The assay was repeated three times.

The test system of a further assay is MDA-MB-231(C). Nature of the assay: Induction of apoptosis (TUNEL assay). The conditions noted are these: about 1.5 μM, two to three days. On the procedure:
FIG. 23 depicts induction of apoptosis in MDA-MB-231 cells by rtEA4-peptide. MDA-MB-231 cells were treated wit control protein or rtEa4-peptide (about 1.5 μM) for two days, and three days, and were then subjected to TUNEL assay. (A) Treatment with rtEa4-peptide for two days; (B) Treatment with rtEa-4-peptide for three days.
FIG. 24 depicts the effect of rtEa4-peptide on induction of apoptosis in MDA-MB-231 cells treated with rtEa4-peptide. (A) Detection of apoptosis by TUNEL assay; (B) Detection of apoptosis y detecting the induction of the activated caspase-3 activity. MDA-MB-231 cells were treated with about 1.5 μM of rtEa4-peptide for about 48 hours, fixed and subjected to TUNEL assay or stained with anti-human activated caspase-3 serum conjugated with rhodamine. Hydrogen peroxide (H2O2), 0.5 mM, was used to induce apoptosis as a positive control.

The subject of assay [2] is Caspase-3 mRNA in OVCAR-3(B). The assay can be described thus: Induction of caspase-3 mRNA. The text has this:
Induction of caspase-3 has been widely used as an indicator of cells undergoing apoptosis.

B1: rtEa-4: recombinant Ea-4 peptide of rainbow trout pro-IGF-I, 74 amino acid residues (SEQ ID NO: 2) (protein)
chain: RSVRAQRHTDMPRTPKVSTAVQNVDRGTERRTAQHPDKTKTKKKPLSGHSHPSCKEVHQKNSSRGNTGGRNYRM
modifications: Oncorhynchus mykiss
For the molecule B1, in assay [1], the “colonies developed in soft agar medium” value is given as “fewer colonies”. The figures for the “% Invasion” value with HT1080 cells (0.17 μM) and in the assay on HT1080 cells (0.34 μM) were 19% and 15%, respectively. The entries for the “% Reduction of invasion” value in the assay with HT1080 cells (0.17 μM) and with HT1080 cells (0.34 μM) were 52% and 62%, respectively. In addition, the “# invaded cells/view (MIC)” value in the assay on HT1080 cells (0.17 μM) was 30 ± 5 cells/view; in the assay with HT1080 cells (0.34 μM), 24 ± 1 cells/view. Moreover, the “# invaded cells/view (CIC)” value in the assay on HT1080 cells (0.17 μM) and in the assay on HT1080 cells (0.34 μM) was 157 ± 6 cells/view in each case. For the same molecule, in the assay with HT1080 cells (0.17 and 0.34 μM), the invasive activity entry was “dose-dependent reduction”. Moreover, the TUNEL staining result in the assay on MDA-MB-231(C) is recorded as “TUNEL staining positive”. The “Caspase-3 mRNA” value is on record as 7.8 × 10^5 ± 7.9 × 10^4 molecules / μg total RNA in assay [2] (0.04 μM), 9.9 × 10^5 ± 2.0 × 10^4 molecules / μg total RNA in assay [2] (0.20 μM), 1.9 × 10^5 ± 3.4 × 10^4 molecules / μg total RNA in assay [2] (1.00 μM) and 1.0 × 10^5 ± 1.4 × 10^4 molecules / μg total RNA in assay [2] (5.00 μM).
